Test system: MS2 coat protein
Test: apparent KD of MS2 coat protein; higher = weaker reporter binding
Conditions: Eterna round: R107
In short: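 Apparent KD was obtained for each design as the median of normalised binding-curve fits over its clusters. RNA switches transcribed on-chip from Illumina sequencing clusters were titrated with SNAP-549-labelled MS2 coat protein (twofold steps, 0.7 or 1.5 nM to 3 µM) in 100 mM Tris-HCl pH 7.5, 80 mM KCl, 4 mM MgCl2, without or with constant ligand.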

[1] = input ligand: theophylline 20 uM
[2] = input ligand: theophylline 2 mM
[3] = input ligand: tryptophan 2.4 mM

Sequence | apparent KD of MS2 coat protein (input ligand: arginine 13.2 mM) [nM] | apparent KD of MS2 coat protein (input ligand: none) [nM] | apparent KD of MS2 coat protein [1] [nM] | apparent KD of MS2 coat protein [2] [nM] | apparent KD of MS2 coat protein [3] [nM]
GCACCAGGUACGGAUACCAGACGCUGCCGAUUGGGUGGACAUGAGGAUCACCCAUGUAAUGUCCCUUGGCAGCCGUACCUGGUGC [#17 Exclusion-TheophyllineB] | 13.5 | 13.8 | 38.8 | 200 | 17.8
UUGACAUGAGGAUCACCCAUGUUAGCGGAAGGAGCGCGGUAGUACGCAGGUAGGUCGCCGAGAACAGUGAUAGUUGUUCUCAUGU [X-ArgiA-ms2@4-1] | 27.6 | 76.6 | 85 | 91.2 | 46.9
AGUAGUUGACAAAAGUCAGCUACAACUGAAGGAGCGGGUGGGUGCCCAGGUAGGUCGCGGAAACAUGAGGAUCACCCAUGUAUAA [ArgAS 1 #BothOrNeither #OpenEnded] | 37.3 | 13.1 | 19.4 | 21.7 | 21.7
CUACAUUUGUAGAAACCGGUCAACAAUAAUCGAGGACCGGUACGGCCGCCACUCGAUGUGAAAUCACAUGAGGAUCACCCAUGUA [Tryptophan A 18] | 18.9 | – | 23.8 | 19.8 | –
UUUUUUAUUAUGGCGUAUCGGAAAACCGAUACCAGUACAGAAAUGUACCCUUGGCAGCGGCGUUUUACAUGAGGAUCACCCAUGU [Ex Theophylline A 5] | 12.4 | – | 18.9 | – | 15.4
UGACAUUGCUGCGAUACCAGACAUGAGGAUCACCCAUGUACCAAGGUAAAGAAAUAACGUGUCCCUUGGCAGCGCAGCAAUGUCU [MAT - Exclusion Theophlline B - Mod of Eli - D8] | 11.5 | – | 13.9 | – | 10.1
AGAUGUAGCGGAAGGAGCGACAUGAGGAUCACCCAUGUCUCCCGUUGUGGGAGUUCCUUAGGUCAGGUAGGUCGCCGUUACGUCA [Omei Arg B SS B v2] | 121 | 230 | 153 | 259 | 132
ACAUGAGGAUCACCCAUGUGCAUGAUGAUCCGAGGACCGGUACGGCCGCCACUCGUCAUGAUGAUCUUUCAUGUUUGUCGCGCGC [Flamini II] | 62.6 | – | 326 | 422 | –
UGUAUGUGAUUUGAUACCAGACCAGCUGGUGGUACCUGAGGAUCACCCAGGUAGGUUUGGGUCCCUUGGCAGCAAAUCGCAUACU [SS Theo B #24 Ms6] | 22 | 20.6 | 23.8 | 11.4 | 21.2
ACAUGAGGAUCACCCAUGUCUGCCACUGAUACCAGCGGAAGAAAACGCCCUUGGCAGCAGAACAUGAGGAUCACCCAUGUAGGCU [Same State Theophylline A GF29] | 39.6 | – | 166 | – | 140
UAUCCACAUGAGGAUCACCCAUGUAUGGAAGGAGCGGUGAAUGAACCAGGUAGGUCGCCAUGGUGAGGAUCAUCUAUGGAUUCGU [Exclusion - Arginine A (Freestyle 9)] | 30.3 | 56.5 | 82.4 | 72.2 | 86.7
GAUGAACUAUUCGAUACCAGACUACAUGAGGAUCACCCAUGUGUGUCAAUUUCUCAGUCAGUCCCUUGGCAGCGAAUAGUUUAUC [#26 Exclusion-TheophyllineB] | 53 | – | 51.7 | – | 26.3
GGACUAACCAGAAGGAGCGACGCGCAGAAACUGCAAAAUCCUCCGCACGAGGAUCACCCGUGUCAGGUAGGUCGCUGGUUAGUCG | 21.9 | 29.6 | 34.5 | 32.6 | 27.7
GGGCGCUAUCCCGCGAGGGAUAGCGUUCAACGAGGACCGGUACGGCCGCCACUCGAACGAGUGGGUACAUGAGGAUCACCCAUGU [Haa] | 19.9 | 28.5 | 46.4 | 37.1 | 35.4
AUUUAUUAGACGGCCGCCACUUGAAAGAGACCUCAUAAAUGGGAACAUGAGGAUCACCCAUGUAAGAGGACCGGGUCUAGUAGAU [TryptB-ms2@45] | 55.2 | 567 | 497 | 1320 | 610
AAAGGUAGCAAUAAAUCUCCUACAUGUGAAGGAGCGCCCGAAAGGGCAGGUAGGUCGCACAUGAGGAUCACCCAUGUGAGCUACC [ArgEX 5 #SwitchBubble] | 18.9 | 15.2 | 20.9 | 21.2 | 15.3
